Source: publication PMC12373898 (Communications Biology, 2025)

Biological target: F-actin (pre-assembled, AlexaFluor-labeled) (rabbit, UniProt P68135 1-377, AlexaFluor-labeled actin added to the polymerisation)
Assay: TIRF microscopy in vitro reconstitution

- binding result: binds
B1: His-GFP-Maspin-StrepII (natural protein)
chain: MDALQLANSAFAVDLFKQLCEKEPLGNVLFSPICLSTSLSLAQVGAKGDTANEIGQVLHFENVKDVPFGFQTVTSDVNKLSSFYSLKLIKRLYVDKSLNLSTEFISSTKRPYAKELETVDFKDKLEETKGQINNSIKDLTDGHFENILADNSVNDQTKILVVNAAYFVGKWMKKFSESETKECPFRVNKTDTKPVQMMNMEATFCMGNIDSINCKIIELPFQNKHLSMFILLPKDVEDESTGLEKIEKQLNSESLSQWTNPSTMANAKVKLSIPKFKVEKMIDPKACLENLGLKHIFSEDTSDFSGMSETKGVALSNVIHKVCLEITEDGGDSIEVPGARILQHKDELNADHPFIYIIRHNKTRNIIFFGKFCSP
